± gives the standard deviation of the averaged measurements.
Experiment: total protein half-life in vivo (active degradation + dilution); higher = more stable protein
[1] = E. coli NCM3722 delta-clpP delta-lon delta-hslV, growth: N-lim chemostat, doubling time 6 h
[2] = E. coli NCM3722 delta-clpP, growth: N-lim chemostat, doubling time 6 h
[3] = E. coli NCM3722 delta-hslV, growth: N-lim chemostat, doubling time 6 h
[4] = E. coli NCM3722 delta-lon, growth: N-lim chemostat, doubling time 6 h
[5] = E. coli NCM3722 delta-smpB, growth: N-lim chemostat, doubling time 6 h
[6] = wild type E. coli NCM3722, growth: C-lim chemostat, doubling time 3 h
[7] = wild type E. coli NCM3722, growth: C-lim chemostat, doubling time 12 h
[8] = wild type E. coli NCM3722, growth: N-lim chemostat, doubling time 6 h
[9] = wild type E. coli NCM3722, growth: N-lim chemostat, doubling time 12 h
[10] = wild type E. coli NCM3722, growth: P-lim chemostat, doubling time 6 h
[11] = wild type E. coli NCM3722, growth: P-lim chemostat, doubling time 12 h
[12] = wild type E. coli NCM3722, growth: C-lim chemostat, doubling time 6 h

Sequence	total protein half-life in vivo [1] [h]	total protein half-life in vivo [2] [h]	total protein half-life in vivo [3] [h]	total protein half-life in vivo [4] [h]	total protein half-life in vivo [5] [h]	total protein half-life in vivo [6] [h]	total protein half-life in vivo [7] [h]	total protein half-life in vivo [8] [h]	total protein half-life in vivo [9] [h]	total protein half-life in vivo [10] [h]	total protein half-life in vivo [11] [h]	total protein half-life in vivo [12] [h]
MEKLRVGIVFGGKSAEHEVSLQSAKNIVDAIDKSRFDVVLLGIDKQGQWHVSDASNYLLNADDPAHIALRPSATSLAQVPGKHEHQLIDAQNGQPLPTVDVIFPIVHGTLGEDGSLQGMLRVANLPFVGSDVLASAACMDKDVTKRLLRDAGLNIAPFITLTRANRHNISFAEVESKLGLPLFVKPANQGSSVGVSKVTSEEQYAIAVDLAFEFDHKVIVEQGIKGREIECAVLGNDNPQASTCGEIVLTSDFYAYDTKYIDEDGAKVVVPAAIAPEINDKIRAIAVQAYQTLGCAGMARVDVFLTPENEVVINEINTLPGFTNISMYPKLWQASGLGYTDLITRLIELALERHAADNALKTTM [P0A6J8]	4.83 ± 0.18	5.65 ± 1.4	4.95 ± 0.063	6.41 ± 1.5	4.9 ± 0.21	2.99 ± 0.12	10.5 ± 0.68	4.89 ± 0.086	8.61 ± 0.1	5.56 ± 0.49	11.5 ± 0.22	
MEKNNEVIQTHPLVGWDISTVDSYDALMLRLHYQTPNKSEQEGTEVGQTLWLTTDVARQFISILEAGIAKIESGDFQVNEYRRH [P0AB33]	4.09											
MEKYLHLLSRGDKIGLTLIRLSIAIVFMWIGLLKFVPYEADSITPFVANSPLMSFFYEHPEDYKQYLTHEGEYKPEARAWQTANNTYGFSNGLGVVEVIIALLVLANPVNRWLGLLGGLMAFTTPLVTLSFLITTPEAWVPALGDAHHGFPYLSGAGRLVLKDTLMLAGAVMIMADSAREILKQRSNESSSTLKTEY					5.11		12.5		6.8			
MELIFLGTSAGVPTRTRNVTAILLNLQHPTQSGLWLFDCGEGTQHQLLHTAFNPGKLDKIFISHLHGDHLFGLPGLLCSRSMSGIIQPLTIYGPQGIREFVETALRISGSWTDYPLEIVEIGAGEILDDGLRKVTAYPLEHPLECYGYRIEEHDKPGALNAQALKAAGVPPGPLFQELKAGKTITLEDGRQINGADYLAAPVPGKALAIFGDTGPCDAALDLAKGVDVMVHEATLDITMEAKANSRGHSSTRQAATLAREAGVGKLIITHVSSRYDDKGCQHLLRECRSIFPATELANDFTVFNV [P0A8V0]	4.1 ± 0.62	5.44 ± 1	4.51 ± 0.3	5.43 ± 0.51	3.918 ± 0.011	3.01 ± 0.12	10 ± 0.64	3.93 ± 0.28	7.42 ± 0.32	5.54 ± 1.4	11.3 ± 2.1	5.64 ± 0.69
MELKDYYAIMGVKPTDDLKTIKTAYRRLARKYHPDVSKEPDAEARFKEVAEAWEVLSDEQRRAEYDQMWQHRNDPQFNRQFHHGDGQSFNAEDFDDIFSSIFGQHARQSRQRPATRGHDIEIEVAVFLEETLTEHKRTISYNLPVYNAFGMIEQEIPKTLNVKIPAGVGNGQRIRLKGQGTPGENGGPNGDLWLVIHIAPHPLFDIVGQDLEIVVPVSPWEAALGAKVTVPTLKESILLTIPPGSQAGQRLRVKGKGLVSKKQTGDLYAVLKIVMPPKPDENTAALWQQLADAQSSFDPRKDWGKA	6.73 ± 1.4	5.61 ± 0.13	5.26 ± 0.1	6.28 ± 0.45	4.99 ± 0.26	3.32 ± 0.26		4.87 ± 0.37	9.91 ± 2.2	5.76 ± 0.35	12.8 ± 0.6	5.86 ± 1.2
MELKKLMGHISIIPDYRQAWKMEHKLSDILLLTICAVISGAEGWEDIEDFGETHPDFLKQYGDFENGIPVHDTIARVVSCISPAKFHECFINWMRDCHSSDDKDVIAIDGKTLRHSYDKSRRRGAIHVISAFSTMHSLVIGQIKTDEKSNEITAIPELLNMLDIKGKIITTDAMGCQKDIAEKIQKQGGDYLFAVKGNQGRLNKAFEEKFPLKELNNPAHDSYAMSEKSHGREEIRLHIVCDVPDELIDFTFEWKGLKKLCVAVSFRSIIAEQKKELEMTVRYYISSADLTAEKFATAIRNHWHVENKLHWRLDVVMNEDDCKIRRGNAAELFSGIRHIAINILTNDKVFKAGLRRKMRKAAMDRNYLASVLTGSGLS	6.51										11.9	
MELLVLVWRQYRWPFISVMALSLASAALGIGLIAFINQRLIETADTSLLVLPEFLGLLLLLMAVTLGSQLALTTLGHHFVYRLRSEFIKRILDTHVERIEQLGSASLLAGLTSDVRNITIAFVRLPELVQGIILTIGSAAYLWMLSGKMLLVTAIWMAITIWGGFVLVARVYKHMATLRETEDKLYTDFQTVLEGRKELTLNRERAEYVFNNLYIPDAQEYRHHIIRADTFHLSAVNWSNIMMLGAIGLVFWMANSLGWADTNVAATYSLTLLFLRTPLLSAVGALPTLLTAQVAFNKLNKFALAPFKAEFPRPQAFPNWQTLELRNVTFAYQDNAFSVGPINLTIKRGELLFLIGGNGSGKSTLAMLLTGLYQPQSGEILLDGKPVSGEQPEDYRKLFSAVFTDVWLFDQLLGPEGKPANPQLVEKWLAQLKMAHKLELSNGRIVNLKLSKGQKKRVALLLALAEERDIILLDEWAADQDPHFRREFYQVLLPLMQEMGKTIFAISHDDHYFIHADRLLEMRNGQLSELTGEERDAASRDAVARTA		5.55 ± 0.68	2.75		3.49 ± 2.1	3.11 ± 0.83	8.87	3.39	6.04		6.15	
MELRHLRYFVAVAQALNFTRAAEKLHTSQPSLSSQIRDLENCVGVPLLVRDKRKVALTAAGECFLQDALAILEQAENAKLRARKIVQEDRQLTIGFVPSAEVNLLPKVLPMFRLRQPDTLIELVSLITTQQEEKIRRGELDVGLMRHPVYSPEIDYLELFDEPLVVVLPVDHPLAHEKEITAAQLDGVNFVSTDPVYSGSLAPIVKAWFAQENSQPNIVQVATNILVTMNLVGMGLGVTLIPGYMNNFNTGQVVFRPIAGNVPSIALLMAWKKGEMKPALRDFIAIVQERLASVTA	5.58 ± 0.39					0.275						
MELYLDTANVAEVERLARIFPIAGVTTNPSIIAASKESIWEVLPRLQKAIGDEGILFAQTMSRDAQGMVEEAKRLRDAIPGIVVKIPVTSEGLAAIKILKKEGITTLGTAVYSAAQGLLAALAGAKYVAPYVNRVDAQGGDGIRTVQELQTLLEMHAPESMVLAASFKTPRQALDCLLAGCESITLPLDVAQQMLNTPAVESAIEKFEHDWNAAFGTTHL	4.61 ± 1.5			3.3	2.84	2.91 ± 0.4	9.6 ± 0.48			5.37	9.74 ± 0.17	3.9 ± 0.8
MEMTSAFTLNVRLDNIAVITIDVPGEKMNTLKAEFASQVRAIIKQLRENKELRGVVFVSAKPDNFIAGADINMIGNCKTAQEAEALARQGQQLMAEIHALPIQVIAAIHGACLGGGLELALACHGRVCTDDPKTVLGLPEVQLGLLPGSGGTQRLPRLIGVSTALEMILTGKQLRAKQALKLGLVDDVVPHSILLEAAVELAKKERPSSRPLPVRERILAGPLGRALLFKMVGKKTEHKTQGNYPATERILEVVETGLAQGTSSGYDAEARAFGELAMTPQSQALRSIFFASTDVKKDPGSDAPPAPLNSVGILGGGLMGGGIAYVTACKAGIPVRIKDINPQGINHALKYSWDQLEGKVRRRHLKASERDKQLALISGTTDYRGFAHRDLIIEAVFENLELKQQMVAEVEQNCAAHTIFASNTSSLPIGDIAAHATRPEQVIGLHFFSPVEKMPLVEIIPHAGTSAQTIATTVKLAKKQGKTPIVVRDKAGFYVNRILAPYINEAIRMLTQGERVEHIDAALVKFGFPVGPIQLLDEVGIDTGTKIIPVLEAAYGERFSAPANVVSSILNDDRKGRKNGRGFYLYGQKGRKSKKQVDPAIYPLIGTQGQGRISAPQVAERCVMLMLNEAVRCVDEQVIRSVRDGDIGAVFGIGFPPFLGGPFRYIDSLGAGEVVAIMQRLATQYGSRFTPCERLVEMGARGESFWKTTATDLQ	6.37 ± 0.25	6.427 ± 0.028	6.27 ± 0.24	6.41 ± 0.81	5.89 ± 0.35	2.94 ± 0.22	12 ± 0.15	5.986 ± 0.037	13.5 ± 2.2	6.1 ± 0.18	12.3 ± 0.21	6.2 ± 0.16
